Data on one molecule can be found in paper PMC6087429 (Structure(London, England:1993), 2018).

The assay concerns the target NDR1 MBD and kinase domain (NDR1^MBD-KD, residues 12-418), wild type (human, UniProt Q15208 12-418). Put plainly: HDX-MS.

NDR1 MBD and kinase domain (NDR1^MBD-KD, residues 12-418), wild type, sequence (Q15208 12-418): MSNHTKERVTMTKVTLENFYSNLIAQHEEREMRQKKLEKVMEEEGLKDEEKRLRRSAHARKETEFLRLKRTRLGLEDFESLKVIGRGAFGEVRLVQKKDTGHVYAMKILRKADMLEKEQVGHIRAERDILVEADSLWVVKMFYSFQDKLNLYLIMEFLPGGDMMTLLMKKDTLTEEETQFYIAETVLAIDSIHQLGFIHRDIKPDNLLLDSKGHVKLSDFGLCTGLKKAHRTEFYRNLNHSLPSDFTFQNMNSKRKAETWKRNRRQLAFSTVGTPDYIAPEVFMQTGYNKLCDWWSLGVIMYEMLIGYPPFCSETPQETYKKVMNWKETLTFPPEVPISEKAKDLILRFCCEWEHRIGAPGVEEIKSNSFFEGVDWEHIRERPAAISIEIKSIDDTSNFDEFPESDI

B1: MOB1A (amino acids 2-216), recombinant (natural protein, human, UniProt Q9H8S9 2-216, looked up)
chain: SFLFSSRSSKTFKPKKNIPEGSHQYELLKHAEATLGSGNLRQAVMLPEGEDLNEWIAVNTVDFFNQINMLYGTITEFCTEASCPVMSAGPRYEYHWADGTNIKKPIKCSAPKYIDYLMTWVQDQLDDETLFPSKIGVPFPKNFMSVAKTILKRLFRVYAHIYHQHFDSVMQLQEEAHLNTSFKHFIFFVQEFNLIDRRELAPLQELIEKLGSKDR
B1: the binding result is reported as “binds”.
